What was measured:
[1] = system: Fur (ferric uptake regulator) (Helicobacter pylori (strain G27?)); assay: DNase I footprinting (full protection); conditions: apo (150 uM 2,2'-dipyridyl); site fOPII; Footprinting: 15 fmol probe in 50 ul, 300 ng salmon sperm DNA, room temperature, 150 uM Fe2+ or dipyridyl; competitive buffer 20 mM HEPES pH 7.85, 50 mM KCl, 0.
[2] = system: Fur (ferric uptake regulator) (Helicobacter pylori (strain G27?)); assay: DNase I footprinting (protection); conditions: Footprinting: 15 fmol probe in 50 ul, 300 ng salmon sperm DNA, room temperature, 150 uM Fe2+ or dipyridyl, competitive buffer 20 mM HEPES pH 7.85, 50 mM KCl, 0.

With ParsR wild-type footprinting probe the binding signal [1] was 30 nM, the binding signal ([2]; apo (150 uM 2,2'-dipyridyl), site fOPI) was 75 nM and the binding signal ([2]; holo (150 uM Fe2+), site fOPI) was 12 nM. For the same substance, the binding signal ([2]; holo (150 uM Fe2+), site fOPIII (low affinity)) was 125 nM.

Source: publication PMC5007355
